Experimental data from patent publication US20240400703A1 (Genmab, published 2024).
Several values for one entry are separate records, joined by “and”; a condition that tells them apart may be missing. Equal entries are not always repeated. One block for each binder: values may come before it.

What was measured:
[1] = biological target: T1, human OX40 expressed on cells (human, UniProt P43489 29-277); test: cell-based or functional assay
T1 sequence: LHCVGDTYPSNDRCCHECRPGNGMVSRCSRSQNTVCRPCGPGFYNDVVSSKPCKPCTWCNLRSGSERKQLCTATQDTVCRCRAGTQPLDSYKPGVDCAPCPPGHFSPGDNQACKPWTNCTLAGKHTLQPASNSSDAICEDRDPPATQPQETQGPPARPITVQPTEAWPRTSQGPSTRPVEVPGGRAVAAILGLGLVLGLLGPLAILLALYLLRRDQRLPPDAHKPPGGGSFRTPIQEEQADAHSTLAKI

[2] = biological target: T1, human OX40 expressed on cells; test: flow cytometry, activated human CD8+ T cells, donor 1
Experimental: Healthy human donor PBMCs were purified essentially as described in Example 7. The cell concentration was adjusted to 2×10⁶ cells per mL (final concentration) in assay medium and plated in 6-well plates (Greiner, cat. no. 657160). PBMCs were stimulated with 0.3 μg/mL anti-CD3 ([…] Technologies, cat. no. 60011) and 0.5 μg/mL anti-CD28 antibodies (BioLegend, cat. no. 302934) and cultured for two days at 37° C., 5% CO₂. Next, the PBMCs were harvested, counted and brought to a concentration of 2×10⁶ cells per mL in FACS buffer 1 (DPBS with 2% heat-inactivated FBS and 2 mM ethylenediaminetetraacetic acid [EDTA]). […] After 60 min at RT, the cells were prepared for flow cytometric analyses. To this end, the cells were washed twice with 150 μL FACS buffer 1 and 30 μL/well cell-surface antibody mix (Table 9) in FACS buffer 1 containing antibody against human Fcγ antibody (Table 9) and fixable viability dye eFluor780 (1:1,500) was added. The staining procedures were carried out at 4° C. for 15-20 min protected from light. Stained cells were washed twice with 120-150 μL FACS buffer 1 (5 min, 460×g, RT) and resuspended in 60-100 μL FACS buffer 1 for direct flow cytometric analyses. Flow cytometric data were acquired on a FACSymphony A3 and analyzed with FlowJo software.

[3] = biological target: T1, human OX40 expressed on cells; test: flow cytometry, loss of sOX40L (2 µg/mL) binding to activated human CD8+ T cells; competitor sOX40L; unit taken from the upper half of the table
Experimental: Stimulated PBMCs were pelleted, resuspended in FACS buffer 2 (DPBS with 2% heat-inactivated FBS [Sigma-Aldrich, cat. no. F7524] and 2 mM EDTA [Sigma-Aldrich, cat. no. 03690]), and seeded (100,000 cells/well) in round-bottom 96-well plates (VWR International GmbH, cat. no. 734-197). […] Next, cells were washed twice in FACS buffer, and incubated with 30 μL of the antibody panel described in Table 11 diluted in FACS buffer 2 containing 1:1,500 Fixable Viability Stain eFluor 780 at 4° C. for 20 min, protected from light. The cells were subsequently washed twice with 120-150 μL FACS buffer 2 and measured on a BD FACSCelesta flow cytometer using a BD High Throughput sampler and subsequent analysis was done using FlowJo software.

[4] = biological target: T2, recombinant cynomolgus monkey OX40 (Acro Biosystems, cat. no. OX0-C5220) (cynomolgus monkey (Macaca fascicularis), UniProt P43489 29-214 (human entry)); test: BLI, Ab on AHC sensor, OX40 analyte; * binding observed, less reliable fit
T2 construct: bought protein; also called Cyno OX40
T2 chain: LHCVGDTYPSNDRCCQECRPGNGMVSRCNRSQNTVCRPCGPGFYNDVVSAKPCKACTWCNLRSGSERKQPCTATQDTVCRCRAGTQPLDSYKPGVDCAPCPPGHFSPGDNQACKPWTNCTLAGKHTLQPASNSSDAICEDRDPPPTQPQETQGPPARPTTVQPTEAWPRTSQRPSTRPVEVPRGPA
Experimental: Experiments were carried out while shaking at 1,000 RPM at 30° C. […] Next, AHC sensors were loaded with antibody (1 μg/mL in Sample Diluent) for 600 s. After a baseline measurement in sample diluent (100 s), the association (200 s) and dissociation (1,000 s) of human OX40 (Acro Biosystems, cat. no. OX0-H5224), and cynomolgus monkey OX40 (Acro Biosystems, cat. no. OX0-C5220) was determined using a concentration range of 0.78 to 800 nM with 2-fold dilution steps.
The theoretical molecular masses of the antigens based on the amino acid sequences were used for calculations. For each antibody, a reference sensor was used which was incubated with Sample Diluent instead of antigen. AHC sensors were regenerated by exposure to 10 mM glycine buffer pH 1.7 for 5 s, followed by neutralization in Sample Diluent for 5 s; both steps were repeated twice. Subsequently sensors were loaded again with antibody for the next cycle of kinetic measurements.
Data were acquired using Data Acquisition Software v12.0 (Sartorius) and analyzed with Data Analysis Software v12.0 (Sartorius). Data traces were corrected per antibody by subtraction of the reference sensor. The Y-axis was aligned to the last 10 s of the baseline and Interstep Correction alignment to dissociation as well as Savitzky-Golay filtering were applied. Data traces with a response <0.05 nm were excluded from analysis. […] The data was fitted with the 1:1 model using a window of interest for the association of 200 s and dissociation times set at 50 s, 200 s and 1,000 s. The dissociation time was chosen based upon R² value, visual inspection of the curve and at least 5% signal decay during the dissociation step.

- Average EC50 CD4+ T-cell proliferation (17 donors) [1]: 0.013 µg/ml and 0.085 nM
- Average EC50 CD8+ T-cell proliferation (17 donors) [1]: 0.017 µg/ml and 0.115 nM
- EC50 CD4+ T-cell proliferation, donor 1 [1]: 0.009 µg/ml and 0.057 nM
- EC50 CD4+ T-cell proliferation, donor 2 [1]: 0.024 µg/ml and 0.159 nM
- EC50 CD4+ T-cell proliferation, donor 3 [1]: 0.012 µg/ml and 0.084 nM
- EC50 CD4+ T-cell proliferation, donor 4 [1]: 0.007 µg/ml and 0.048 nM
- EC50 CD4+ T-cell proliferation, donor 5 [1]: 0.008 µg/ml and 0.053 nM
- EC50 CD4+ T-cell proliferation, donor 6 [1]: 0.006 µg/ml and 0.038 nM
- EC50 CD4+ T-cell proliferation, donor 7 [1]: 0.019 µg/ml and 0.129 nM
- EC50 CD4+ T-cell proliferation, donor 8 [1]: 0.016 µg/ml and 0.107 nM
- EC50 CD4+ T-cell proliferation, donor 9 [1]: 0.007 µg/ml and 0.048 nM
- EC50 CD4+ T-cell proliferation, donor 10 [1]: 0.017 µg/ml and 0.111 nM
- EC50 CD4+ T-cell proliferation, donor 11 [1]: 0.01 µg/ml and 0.067 nM
- EC50 CD4+ T-cell proliferation, donor 12 [1]: 0.009 µg/ml and 0.06 nM
- EC50 CD4+ T-cell proliferation, donor 13 [1]: 0.019 µg/ml and 0.125 nM
- EC50 CD4+ T-cell proliferation, donor 14 [1]: 0.008 µg/ml and 0.052 nM
- EC50 CD4+ T-cell proliferation, donor 15 [1]: 0.02 µg/ml and 0.132 nM
- EC50 CD4+ T-cell proliferation, donor 16 [1]: 0.008 µg/ml and 0.053 nM
- EC50 CD4+ T-cell proliferation, donor 17 [1]: 0.018 µg/ml and 0.119 nM
- EC50 CD8+ T-cell proliferation, donor 1 [1]: 0.028 µg/ml and 0.19 nM
- EC50 CD8+ T-cell proliferation, donor 2 [1]: 0.029 µg/ml and 0.195 nM
- EC50 CD8+ T-cell proliferation, donor 3 [1]: 0.013 µg/ml and 0.087 nM
- EC50 CD8+ T-cell proliferation, donor 4 [1]: 0.007 µg/ml and 0.048 nM
- EC50 CD8+ T-cell proliferation, donor 5 [1]: 0.009 µg/ml and 0.058 nM
- EC50 CD8+ T-cell proliferation, donor 6 [1]: 0.008 µg/ml and 0.051 nM
- EC50 CD8+ T-cell proliferation, donor 7 [1]: 0.041 µg/ml and 0.273 nM
- EC50 CD8+ T-cell proliferation, donor 8 [1]: 0.005 µg/ml and 0.033 nM
- EC50 CD8+ T-cell proliferation, donor 9 [1]: 0.008 µg/ml and 0.052 nM
- EC50 CD8+ T-cell proliferation, donor 10 [1]: 0.016 µg/ml and 0.109 nM
- EC50 CD8+ T-cell proliferation, donor 11 [1]: 0.014 µg/ml and 0.095 nM
- EC50 CD8+ T-cell proliferation, donor 12 [1]: 0.009 µg/ml and 0.058 nM
- EC50 CD8+ T-cell proliferation, donor 13 [1]: 0.052 µg/ml and 0.346 nM
- EC50 CD8+ T-cell proliferation, donor 14 [1]: 0.008 µg/ml and 0.054 nM
- EC50 CD8+ T-cell proliferation, donor 15 [1]: 0.018 µg/ml and 0.117 nM
- EC50 CD8+ T-cell proliferation, donor 16 [1]: 0.011 µg/ml and 0.074 nM
- EC50 CD8+ T-cell proliferation, donor 17 [1]: 0.017 µg/ml and 0.116 nM
- EC50 [2]: 0.0329 µg/mL
- IC50 [3]: 0.561 nM
B1: IgG1-CD134-003-HC6LC2-P329R-E345R (antibody)
heavy: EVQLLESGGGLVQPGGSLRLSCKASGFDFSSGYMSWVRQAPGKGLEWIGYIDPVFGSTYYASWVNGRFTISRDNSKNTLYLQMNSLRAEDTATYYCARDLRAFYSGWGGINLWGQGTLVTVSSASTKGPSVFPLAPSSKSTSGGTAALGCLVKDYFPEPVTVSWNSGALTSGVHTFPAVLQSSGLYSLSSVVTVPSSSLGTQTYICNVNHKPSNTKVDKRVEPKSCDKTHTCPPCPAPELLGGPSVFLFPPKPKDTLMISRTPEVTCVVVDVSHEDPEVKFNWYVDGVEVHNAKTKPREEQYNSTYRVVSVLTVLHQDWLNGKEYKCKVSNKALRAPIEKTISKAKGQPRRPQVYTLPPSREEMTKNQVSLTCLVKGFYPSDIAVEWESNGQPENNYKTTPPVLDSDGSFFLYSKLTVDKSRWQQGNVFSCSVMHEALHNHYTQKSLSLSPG
light: AAVLTQSPSSLSASVGDRVTITCQSSQIVVNNNFLSWYQQKPGKAPKLLIYDASNLASGVPDRFSGSGSGTDFTFTISSLQPEDIATYYCLGGYDDDAENAFGGGTKVEIKRTVAAPSVFIFPPSDEQLKSGTASVVCLLNNFYPREAKVQWKVDNALQSGNSQESVTEQDSKDSTYSLSSTLTLSKADYEKHKVYACEVTHQGLSSPVTKSFNRGEC
notes: humanized; human IgG1 with P329R and E345R (Eu numbering), kappa; also called IgG1-CD134-003-HC6LC2-RR

- Kd [4]: 180 nM
- koff [4]: 0.018 s⁻¹
- kon [4]: 98000 M⁻¹ s⁻¹
B2: IgG1-CD134-012 (antibody)
heavy: not shown
light: DIVMTQTPASVEAAVGGTVTIKCQASENIYSSLAWYQQKPGQPPKLLIYRTSTLASGVPSRFKGSGSGTQFTLTISDLESDDAATYYCQSYYHNSGGGYDYGFGGGTEVVAKRTVAAPSVFIFPPSDEQLKSGTASVVCLLNNFYPREAKVQWKVDNALQSGNSQESVTEQDSKDSTYSLSSTLTLSKADYEKHKVYACEVTHQGLSSPVTKSFNRGEC
notes: rabbit-human chimeric IgG1
